# fluorescein = fluorescein label on the side chain of the C-terminal Lys
# B1: 27-D10 peptide-displaying phage (SEQ ID NO: 485) (peptide)
# peptide: AQVGESLDDGWTFFSDKWFDFF
# B2: 499-C09 peptide-displaying phage (SEQ ID NO: 023) (peptide)
# peptide: AGVIVCNLSMMYCLYPGT
# B3: 423-C11 peptide-displaying phage (SEQ ID NO: 022) (peptide)
# peptide: AGVLQCIGFEWFCDIWGT
# B4: 103-C04 peptide-displaying phage (SEQ ID NO: 490) (peptide)
# peptide: AQKTWFLEADLFQMFQEVTWQF
# B5: 122-D07 peptide-displaying phage (SEQ ID NO: 486) (peptide)
# peptide: AQFMYEKEHYVMSISLPGLWFY
# B6: 527-A10 peptide-displaying phage (SEQ ID NO: 496) (peptide)
# peptide: AQGGRYPFYDTDWFKWEMYVL
# B7: 334-G06 synthetic fluorescein-labeled peptide (SEQ ID NO: 052) (peptide)
# peptide: Ac-AGWTHCIGPPTFECIPMGTGGGK(fluorescein)-NH2
# modifications: cysteine pairing not given here
# B8: 548-F06 synthetic fluorescein-labeled peptide (SEQ ID NO: 056) (peptide)
# peptide: Ac-AGWISCAGPPTFACWPGGTGGGK(fluorescein)-NH2
# modifications: cysteine pairing not given here
# B9: 333-C05 synthetic fluorescein-labeled peptide (SEQ ID NO: 068) (peptide)
# peptide: Ac-AGDIVCTGHPYFECWSWGTGGGK(fluorescein)-NH2
# modifications: cysteine pairing not given here
# B10: 325-H05 synthetic fluorescein-labeled peptide (SEQ ID NO: 048) (peptide)
# peptide: Ac-AGSIQCKGPPWFSCAMYGTGGGK(fluorescein)-NH2
# modifications: cysteine pairing not given here
# B11: 330-B07 synthetic fluorescein-labeled peptide (SEQ ID NO: 053) (peptide)
# peptide: Ac-AGSFACKGPPTFACVEFGTGGGK(fluorescein)-NH2
# modifications: cysteine pairing not given here
# B12: 330-G09 synthetic fluorescein-labeled peptide (SEQ ID NO: 071) (peptide)
# peptide: Ac-AGHWICVGPPTFSCQWHGTGGGK(fluorescein)-NH2
# modifications: cysteine pairing not given here
# B13: 331-F01 synthetic fluorescein-labeled peptide (SEQ ID NO: 072) (peptide)
# peptide: Ac-AGEWWCHGPPEFLCYWTGTGGGK(fluorescein)-NH2
# modifications: cysteine pairing not given here
# B14: 323-A11 synthetic fluorescein-labeled peptide (SEQ ID NO: 059) (peptide)
# peptide: Ac-AGYTSCVGPPSFECTPYGTGGGK(fluorescein)-NH2
# modifications: cysteine pairing not given here
# B15: 336-G04 synthetic fluorescein-labeled peptide (SEQ ID NO: 051) (peptide)
# peptide: Ac-AGWFQCKGPPSFECERHGTGGGK(fluorescein)-NH2
# modifications: cysteine pairing not given here
# B16: 334-C08 synthetic fluorescein-labeled peptide (SEQ ID NO: 067) (peptide)
# peptide: Ac-AGGWECTGPPWFQCGYYGTGGGK(fluorescein)-NH2
# modifications: cysteine pairing not given here
# B17: 329-D02 synthetic fluorescein-labeled peptide (SEQ ID NO: 061) (peptide)
# peptide: Ac-AGHAWCSGPPRFECWPPGTGGGK(fluorescein)-NH2
# modifications: cysteine pairing not given here
# Biological target: T1, cMet-Fc fusion protein (extracellular domain of the cMet receptor expressed as an Fc-fusion protein) (human, UniProt P08581 25-932)
# T1 construct: extracellular domain; also called soluble cMet-Fc-fusion protein; soluble cMet receptor; not shown: Fc part
# T1 sequence (P08581 25-932): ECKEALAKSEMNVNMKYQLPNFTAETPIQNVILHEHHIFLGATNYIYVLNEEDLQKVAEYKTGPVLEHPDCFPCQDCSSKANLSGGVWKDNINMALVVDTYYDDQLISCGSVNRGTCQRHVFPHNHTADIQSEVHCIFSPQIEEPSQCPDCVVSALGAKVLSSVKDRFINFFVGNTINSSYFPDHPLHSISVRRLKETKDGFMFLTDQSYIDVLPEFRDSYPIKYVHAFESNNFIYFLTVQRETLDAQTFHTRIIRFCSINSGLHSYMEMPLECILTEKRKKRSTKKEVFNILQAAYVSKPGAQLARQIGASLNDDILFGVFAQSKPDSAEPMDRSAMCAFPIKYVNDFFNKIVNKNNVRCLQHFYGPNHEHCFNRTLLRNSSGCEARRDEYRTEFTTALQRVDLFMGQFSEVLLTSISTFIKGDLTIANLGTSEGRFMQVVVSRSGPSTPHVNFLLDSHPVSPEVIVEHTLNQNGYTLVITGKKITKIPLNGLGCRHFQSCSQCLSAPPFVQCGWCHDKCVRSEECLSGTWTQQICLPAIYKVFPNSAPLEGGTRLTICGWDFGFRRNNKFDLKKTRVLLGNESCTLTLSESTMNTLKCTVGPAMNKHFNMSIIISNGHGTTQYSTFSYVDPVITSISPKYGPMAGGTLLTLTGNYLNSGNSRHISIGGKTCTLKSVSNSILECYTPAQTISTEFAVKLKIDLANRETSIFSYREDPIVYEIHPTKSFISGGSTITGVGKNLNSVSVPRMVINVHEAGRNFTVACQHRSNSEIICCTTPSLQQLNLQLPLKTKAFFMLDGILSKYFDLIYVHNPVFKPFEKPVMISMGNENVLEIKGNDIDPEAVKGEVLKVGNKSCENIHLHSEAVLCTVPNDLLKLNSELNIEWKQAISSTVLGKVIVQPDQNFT
# Experiment: phage ELISA on cMet-Fc, competitor HGF 100 ng/mL
# Method in brief: (§1)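 Plates coated with 0.5 μg/mL cMet-Fc, with TRAIL-Fc as background, then blocked with 3% BSA. Bound phage detected with HRP anti-M13 antibody.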
row,Binder,% of binding in the absence of HGF [%]
1,B1,111
2,B2,91
3,B3,132
4,B4,73
5,B5,102
6,B6,84

# Biological target: T2, human cMet expressed on 3T3 cells (human, UniProt P08581 25-1390)
# T2 construct: whole, on cells; cells fixed with glutaraldehyde; also called cell surface-expressed human cMet; 3T3 cells that over-express human cMet
# T2 sequence (P08581 25-1390): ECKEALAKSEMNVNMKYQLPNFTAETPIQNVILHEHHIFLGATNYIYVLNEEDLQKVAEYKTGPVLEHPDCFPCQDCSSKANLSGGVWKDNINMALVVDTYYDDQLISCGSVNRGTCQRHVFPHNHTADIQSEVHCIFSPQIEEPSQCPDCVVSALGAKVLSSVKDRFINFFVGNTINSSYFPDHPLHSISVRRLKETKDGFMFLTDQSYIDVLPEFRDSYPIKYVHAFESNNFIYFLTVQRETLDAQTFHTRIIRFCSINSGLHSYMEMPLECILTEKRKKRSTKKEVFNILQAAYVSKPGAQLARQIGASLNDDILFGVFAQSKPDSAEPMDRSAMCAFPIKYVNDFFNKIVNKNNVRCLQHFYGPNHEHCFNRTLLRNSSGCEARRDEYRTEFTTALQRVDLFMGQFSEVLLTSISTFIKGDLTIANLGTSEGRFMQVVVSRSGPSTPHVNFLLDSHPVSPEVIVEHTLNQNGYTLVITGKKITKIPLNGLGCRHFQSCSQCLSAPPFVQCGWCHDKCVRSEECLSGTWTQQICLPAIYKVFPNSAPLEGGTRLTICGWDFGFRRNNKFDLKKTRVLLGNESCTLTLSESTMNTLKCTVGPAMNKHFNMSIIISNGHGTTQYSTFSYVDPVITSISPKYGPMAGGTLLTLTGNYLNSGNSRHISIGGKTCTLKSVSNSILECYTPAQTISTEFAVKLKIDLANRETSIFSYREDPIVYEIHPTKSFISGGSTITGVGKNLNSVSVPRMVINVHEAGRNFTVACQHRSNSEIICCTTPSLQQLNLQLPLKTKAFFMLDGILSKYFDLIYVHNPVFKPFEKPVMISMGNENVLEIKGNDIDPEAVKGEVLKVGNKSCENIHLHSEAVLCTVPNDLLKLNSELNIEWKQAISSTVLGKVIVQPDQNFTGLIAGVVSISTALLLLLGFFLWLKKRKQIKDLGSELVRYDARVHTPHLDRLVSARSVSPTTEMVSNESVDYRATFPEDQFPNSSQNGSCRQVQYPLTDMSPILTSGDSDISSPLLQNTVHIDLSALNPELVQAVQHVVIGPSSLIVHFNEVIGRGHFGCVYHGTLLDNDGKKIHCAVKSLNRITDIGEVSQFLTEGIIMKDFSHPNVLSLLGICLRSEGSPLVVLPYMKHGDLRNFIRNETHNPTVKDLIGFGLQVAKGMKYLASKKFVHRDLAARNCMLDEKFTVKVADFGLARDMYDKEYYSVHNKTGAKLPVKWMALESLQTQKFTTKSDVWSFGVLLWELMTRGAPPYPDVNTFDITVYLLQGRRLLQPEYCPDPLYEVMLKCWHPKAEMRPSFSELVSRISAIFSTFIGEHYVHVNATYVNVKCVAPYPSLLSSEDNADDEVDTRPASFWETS
# Experiment: whole cell phage ELISA, 3T3 human cMet vs 3T3
# Method in brief: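 3T3 cells over-expressing human cMet, compared against parental 3T3, seeded at 10⁵ per well and fixed with 0.1% glutaraldehyde for 12 min at 37 C. Blocked peptide-displaying phage bound for 1 h at room temperature. After PBST washes, bound phage was detected with HRP-conjugated anti-M13 antibody.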
row,Binder,WC ELISA (fold over background) [fold]
1,B1,1.17
2,B2,1.33
3,B3,1.4
4,B4,1.4
5,B5,1.63
6,B6,1.3

# Biological target: T1, cMet-Fc fusion protein (extracellular …)
# Experiment: fluorescence polarization, 20 nM fluorescein peptide, cMet-Fc varied
# Method: Fluorescence anisotropy measurements were performed in 384-well microplates in a volume of 10 μL in binding buffer (PBS, 0.01% Tween-20, pH 7.5) using a Tecan Polarion fluorescence polarization plate reader ([…]). […] Binding mixtures were equilibrated for 10 minutes in the microplate at 30 C before measurement. The observed change in anisotropy was fit to the equation below via nonlinear regression to obtain the apparent KD. This equation (1) assumes that the synthetic peptide and cMet form a reversible complex in solution with 1:1 stoichiometry.
row,Binder,Kd [nM]
1,B7,2700
2,B8,2700
3,B9,2800
4,B10,3500
5,B11,2900
6,B12,1850
7,B13,980
8,B14,4300
9,B15,3200
10,B16,1650
11,B17,5200

# Biological target: T1, cMet-Fc fusion protein (extracellular …)
# Experiment: phage ELISA, cMet-Fc vs TRAIL-Fc
# Method in brief: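 Plates coated overnight at 4 C with 0.5 μg/mL cMet-Fc, or TRAIL-Fc as background, were blocked with 3% BSA in PBST. Peptide-displaying phage were bound 2 h at room temperature. Bound phage were detected with HRP-conjugated anti-M13 antibody.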
row,Binder,Protein ELISA (fold over background) [fold]
1,B1,3
2,B2,3.2
3,B3,3.4
4,B4,3
5,B5,3
6,B6,3.8

# Biological target: T1, cMet-Fc fusion protein (extracellular …)
# Experiment: phage ELISA on cMet-Fc, competitor HGF 500 ng/mL
# Method in brief: as §1
row,Binder,% of binding in the absence of HGF [%]
1,B1,131
2,B2,70
3,B3,75
4,B4,86
5,B5,92
6,B6,78

# Source: patent US20120039802A1 (published 2012)
